Article PMC6133441

Target: human recombinant galectin-9, medium isoform (gal-9M) (human) (UniProt O00182)
Experiment: SPR; Biacore T200; gal-9M covalently bound to a CM5 chip (NHS/EDC, 10 μg/mL, pH 5, acetate buffer); Gal-Nab1 and Gal-Nab2 as analytes, 1.5 to 400 nM, 40 μL/min, 400 s, albumin 0.1 mg/mL and tween 0.05%; dissociation 500 s; the paper says the KD reflects avidity rather than affinity (apparent)

Sequence of human recombinant galectin-9, medium isoform (gal-9M) (human) (O00182 other isoform, or with tags, fused parts or gaps): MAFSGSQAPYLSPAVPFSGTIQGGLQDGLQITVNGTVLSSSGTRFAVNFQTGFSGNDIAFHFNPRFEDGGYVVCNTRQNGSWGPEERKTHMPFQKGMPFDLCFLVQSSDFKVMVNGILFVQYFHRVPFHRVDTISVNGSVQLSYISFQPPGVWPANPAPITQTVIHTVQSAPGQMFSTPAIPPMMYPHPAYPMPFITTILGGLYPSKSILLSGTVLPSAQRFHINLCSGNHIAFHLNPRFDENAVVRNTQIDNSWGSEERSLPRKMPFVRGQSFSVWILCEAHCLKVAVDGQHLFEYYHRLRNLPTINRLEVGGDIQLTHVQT

Kd: 4.34 nM
koff: 0.000115 s⁻¹
kon: 26500 M⁻¹ s⁻¹
t1/2: 2.07 h
B1: Gal-Nab1 (antibody, V domains shown)
VH: KVQLQQSGAELVKPGASVKLSCKASGYTFTDYTIHWVKQRSGQGLEWIGWFYPGSHSIKYNEQFKDRATLTADKSSSTVYMELSRLTSEDSAVYFCTRHGGYDGFDYWGQGTTLTVSS
VL: DIVMSQSPSSLAVSVGEKITMSCKSSQSLFYSTNQKNYLAWYQQKPGQSPKLLIYWASTRESGVPDRFTGSGSGTDFTLTISSVKAEDLAVYYCQQYYYFPYTFGGGTKLEIK
